Experiment [1] addresses T1, SARS-CoV-2 S on CHO-S cells (SARS-CoV-2, UniProt P0DTC2 14-1273).
T1 construct: whole, on cells
Briefly: flow cytometry, CHO-S cells. For orientation: In flow cytometry, cells or beads pass a laser one at a time.

Experiment [2] has as its target T2, SARS-CoV-2 S1 (aa16-685) (Wuhan) (SARS-CoV-2 Wuhan, UniProt P0DTC2 16-685).
T2 construct: NRC; FLAG, 6xHis tags
Briefly: ELISA. (An ELISA detects its analyte on a solid surface through an enzyme-linked reagent.)

The target in experiment [3] is T3, SARS-CoV-2 S1-NTD (aa16-305) (SARS-CoV-2 Wuhan, UniProt P0DTC2 16-305). Briefly: ELISA.
The target of experiment [4] is T4, SARS-CoV spike (S) (SARS-CoV, UniProt P59594 14-1195). Nature of the experiment: ELISA.
Experiment [5] addresses T4, SARS-CoV spike (S). Briefly: ELISA. This is another data set of the same source.
Experiment [6] has as its target T2, SARS-CoV-2 S1 (aa16-685) (Wuhan). Nature of the experiment: ELISA, coated antigen, apparent EC50.
Experiment [7] deals with T5, SARS-CoV-2 spike trimer S (Wuhan, SmT1) (SARS-CoV-2 Wuhan).
T5 construct: extracellular domain
Briefly: ELISA, coated antigen, apparent EC50.

Experiment [8] concerns the target T3, SARS-CoV-2 S1-NTD (aa16-305). Nature of the experiment: ELISA, coated antigen, apparent EC50.
For experiment [9], the target named is T6, SARS-CoV-2 S2 (aa686-1208) (Wuhan) (SARS-CoV-2 Wuhan, UniProt P0DTC2 686-1208).
T6 construct: NRC; FLAG, 6xHis tags
Nature of the experiment: ELISA.

Like-named read-outs stand apart in the source and are kept apart here.

B1: NRCoV2-MRed20 VHH-Fc (Fc fusion)
chain: EVQLVESGGGSVQAGGSLRLSCAASGLSFSSYDMGWFRQAPGKEREFVAAIRESGSGTYYADSVKGRFTISRDNAKNTVYLQVSSLKPEDTAVYTCAAKPPFYGSGTYSTPRAYLYWGQGTQVTVSS
notes: bivalent VHH-Fc
Consider B1, for which, in [1], the Bmax is 6660 and a half-maximal effect (EC50) was put at 6.5 nM. In addition, the binding result in experiment [2] was “no binding (tested: 13 nM)”. Also, the binding result in experiment [3] is on record as “no binding (tested: 13 nM)”.

B2: NRCoV2-S2B3 VHH-Fc (Fc fusion)
chain: QVQLVDSGGGLVQAGGSLRLSCAASASTFGDSAMGYYRQAPGKQRELVATISTGSNTNYADSVKGRFTISRDDAKNTVYLQMNSLKPEDTAVYYCNYRSIYYGQNFWGQGTQVTVSS
notes: bivalent VHH-Fc
With B2, in experiment [1], the Bmax was 6660 and it took 6.5 nM to reach a half-maximal effect (EC50). Also, the binding result in the experiment with SARS-CoV spike (S) [4] is recorded as “no binding (tested: 13 nM)”.

B3: NRCoV2-MRed22 VHH-Fc (Fc fusion)
chain: EVQLVESGGGLVQPGGSLRLSCAASGSVFASNAMGWYRQAPGKQRELVATISSRGSTNYADSVKGRFTISRDNAKNTVYLQMNSLGPEDTAVYYCNAREFTGFDYWGQGTQVTVSS
notes: bivalent VHH-Fc
Turning to B3, the Bmax in experiment [1] was 5320. The half-maximal effective concentration (EC50) (in general, the midpoint of the concentration-response curve) in experiment [1] was found to be 0.2 nM. Besides, the binding result (in experiment [2]; in experiment [3]; with SARS-CoV spike (S) [5]) was “no binding (tested: 13 nM)” each time.

B4: NRCoV2-MRed19 VHH-Fc (Fc fusion)
chain: EVQLVESGGGLVQPGGSLRLSCAASTIIFKGQTMGWFRQAPGNERELVATMTTSGSANYADSVKGRFTISRDNEKTVTLQMNSLKPEDTALYYCYMHSVYYGIDYWGKGTQVTVSS
notes: bivalent VHH-Fc
B4: in experiment [1], the Bmax was found to be 5480 and the EC50 was 1.3 nM. Moreover, the binding result in experiment [2] was “no binding (tested: 13 nM)”. Further, the binding result in experiment [3] was “no binding (tested: 13 nM)”.

B5: NRCoV2-SR01 VHH-Fc (Fc fusion)
chain: EVQLVQSGGGSVQAGGSLRLSCVASGFTFDNYAIGWFRQAPGKEREGVSCISGNGGVTIYADSVKGRFTISRDNAKNLVYLQMNSLKPEDTAVYYCAATGIRSTWSVYGCSRLAGPYDYWGQGTQVTVSS
notes: bivalent
For the molecule B5, the values for the EC50 in experiment [6], in experiment [7] and in [8] were 0.23 nM, 0.13 nM and 0.19 nM, respectively.

B6: NRCoV2-SR04 VHH-Fc (Fc fusion)
chain: QVQLVESGGGLVQAGGSLRLSCAASGRTFSSHTVGWYRQAPGKQRDLVAAISMGGNTNYADYADSVKGRFTISRDNAKNTLYLQMNSLKPEDTAVYYCNTAALVGNRLLPMATITWGQGTQVTVSS
notes: bivalent VHH-Fc
In the case of B6, in [1], the Bmax came to 10100 and the concentration giving a half-maximal response (EC50) was determined as 8.2 nM. Besides, in experiment [9], the binding result is reported as “no binding (tested: 13 nM)”. Also, the binding result in the experiment with SARS-CoV spike (S) [4] is “no binding (tested: 13 nM)”.

B7: NRCoV2-SR04 VHH-Fc (Fc fusion)
chain: QVQLVESGGGLVQAGGSLRLSCAASGRTFSSHTVGWYRQAPGKQRDLVAAISMGGNTNYADYADSVKGRFTISRDNAKNTLYLQMNSLKPEDTAVYYCNTAALVGNRLLPMATITWGQGTQVTVSS
notes: bivalent
In the case of B7, the EC50 in experiment [6] was 0.25 nM; in experiment [7] it was 0.2 nM; in [8], 0.17 nM.

B8: NRCoV2-MRed06 VHH-Fc (Fc fusion)
chain: EVQLVESGGGLVQAGGSLRLSCAASGFTLAYYAIGWFRQAPGKEREGVSCISSSDGSAHYADSVKGRFTISRDNAKNTVSLQMNSLKPEDTAVYYCATDSFSSCSDYESGMDFWGKGTQVTVSS
notes: bivalent
Regarding B8, the EC50 in [6] worked out at 0.59 nM; in experiment [7] it was 0.4 nM; in [8] it was 0.4 nM.

B9: NRCoV2-S2G3 VHH-Fc (Fc fusion)
chain: QVQLVQSGGGSVQAGGSLRLSCAASGSTFGIFLMGWRRQAPGKQRELVAHITSGGATNYADSVKGRFTISRDNAKNTVYLQMNSLEPEDTAVYYCYTTKRDDASVYWGQGTQVTVSS
notes: bivalent VHH-Fc
In [1], B9 had a Bmax of 7530 and a 50% effective concentration (EC50) of 0.3 nM. In addition, the binding result in experiment [2] is listed as “no binding (tested: 13 nM)”. In addition, in experiment [3], the binding result is on record as “no binding (tested: 13 nM)”.

B10: NRCoV2-MRed07 VHH-Fc (Fc fusion)
chain: EVQLVESGGGLVQPGGSLTLSCAASGSIGPFNTMGWYRQAPGNQREPAAIITRGGVTNYADSVKGRFTISRDNAKNAVYLQMDSLKPDDTAVYYCYANYGWAIPYWGNGTQVTVSS
notes: bivalent
B10: the EC50 turned out to be 1.5 nM in experiment [6], 1.2 nM in [7] and 0.8 nM in experiment [8].

B11: NRCoV2-MRed18 VHH-Fc (Fc fusion)
chain: EVQLVESGGGLVQPGGSLRLSCAASTTVFGRNAMGWYRQAPGKERELVATVSDGGTPNYADSVKGRFTISRDNAKNTIYLQMNSLEPEDTAVYYCNYYNYYYGRNFWGQGTQVTVSS
notes: bivalent VHH-Fc
Take B11: in experiment [1], the Bmax was found to be 10200 and the EC50 worked out at 0.9 nM. Moreover, the binding result in experiment [2] is “no binding (tested: 13 nM)”. In experiment [3], the binding result was “no binding (tested: 13 nM)”.

B12: NRCoV2-S2F3 VHH-Fc (Fc fusion)
chain: EVQLVQSGGGLVQAGGSLRLSCATSVRILSVPAMGWYRQAPGKEREMVAVITSGGSTNYADSVKGRFTISRDNAKNTVYLQMNSLKLEDTAVYQCNLRDILSQPFWGQGTQVTVSS
notes: bivalent VHH-Fc
In [1], B12 had a Bmax of 6950 and an EC50 of 2.7 nM. The binding result in experiment [2] is reported as “no binding (tested: 13 nM)”. Besides, the binding result in [3] was “no binding (tested: 13 nM)”.

B13: NRCoV2-SR16 VHH-Fc (Fc fusion)
chain: QVQLVQSAGGLVQAGGSLRLSCVVSGTTFSRYHMGWHRQAPGKQRDFVAGISTSGAVTYADSAKGRFTISRDNAKNTVYLEMNSLKLEDTALYYCNTGGWDYRSSTFIMGLNWGQGTQVTVSS
notes: bivalent
For B13, the figures for the EC50 in experiment [6], in [7] and in experiment [8] were 2.7 nM, 0.59 nM and 0.36 nM, respectively.

B14: NRCoV2-MRed03 VHH-Fc (Fc fusion)
chain: EVQLVESGGGLVQPGGSLRLSCAAIGFTLDYYAIGWFRQAPGKEREGVSCISSSDGSTYYADSVKGRFTISRDNAKNTVYLQMNSLKPEDTAVYYCATDAFATCDSWYAQIAQYDFRGQGTQVTVSS
notes: bivalent
Consider B14, for which the EC50 in experiment [6] was 0.48 nM; in experiment [7], 0.2 nM; in [8], 0.7 nM.

B15: NRCoV2-SR02 VHH-Fc (Fc fusion)
chain: EVQLVDSGGGLVQAGGSLRLSCTASEFTLNYYSIGWFRQSPGKEREGVSCIRYSGGGIDYADSVKGRFTISRDNAKNTVYLTMNSLKPEDTAVYYCAADRLYSRACPTAGGRNYWGQGTQVTVSS
notes: bivalent
Turning to B15, the concentration for a half-maximal effect (EC50) in experiment [6] was determined as 0.13 nM; in experiment [7], 0.11 nM; in experiment [8], 0.34 nM.

B16: NRCoV2-S2G4 VHH-Fc (Fc fusion)
chain: QVQLVQSGGGLVQAGGSLTLSCAPSGSTFSGYATNWYRQAPGKQRELVATISSDGDKNYADSVKGRFTISRDNAKNTVYLQMNSLKPEDTAVYYCNKHWWTGDWWGQGTQVTVSS
notes: bivalent VHH-Fc
Molecule B16 returned a Bmax in experiment [1] of 6900. The molecule also registered an EC50 in experiment [1] of 0.3 nM. Moreover, the binding result in experiment [2] and in experiment [3] was “no binding (tested: 13 nM)” throughout.

B17: NRCoV2-SR13 VHH-Fc (Fc fusion)
chain: EVQLVESGGGLVTTGGSLRLSCATSGSRFGSKHMAWYRQAPGKQRDLVAAISSGGSTHYGSSVKGRFTISRDNAKSTVYLQMNSLNPEDTAVFYCNMGGWDYRSNTYIPGSRSDYWGQGTQVTVSS
notes: bivalent
On to B17, for which the EC50 was 0.43 nM in experiment [6], 0.43 nM in experiment [7] and 0.23 nM in [8].

B18: NRCoV2-21 VHH-Fc (Fc fusion)
chain: EVQLVESGGGLVQPGGSLRLSCATSGFTLDYYAIGWFRQAPGKEREWVSCISSGGSTFYVDSVKGRFTISRDNAKDTVYLQMSSLKPDDTAVYYCAADHRGRSLRFGCSSSTTDYLYWGQGTQVTVSS
notes: bivalent VHH-Fc
In the case of B18, the binding result in the experiment with SARS-CoV spike (S) [4] is “no binding (tested: 13 nM)”.

B19: NRCoV2-SR03 VHH-Fc (Fc fusion)
chain: AVQLVDSGGGLVQAGGSLRLSCAASGSIFSNNHMGWYRQAPGKQRELVAAISSGGKTNYADFAKGRFTISRDNAKNMVYLQMNSLKPEDTAVYYCNRGGWEYRSSYYIMGPHWGQGTQVTVSS
notes: bivalent VHH-Fc
Molecule B19 displayed a Bmax in experiment [1] of 19900. For the same molecule, the EC50 in experiment [1] is 7.1 nM. For the same molecule, the binding result (in experiment [9]; with SARS-CoV spike (S) [4]) was “no binding (tested: 13 nM)” throughout.

B20: NRCoV2-SR03 VHH-Fc (Fc fusion)
chain: AVQLVDSGGGLVQAGGSLRLSCAASGSIFSNNHMGWYRQAPGKQRELVAAISSGGKTNYADFAKGRFTISRDNAKNMVYLQMNSLKPEDTAVYYCNRGGWEYRSSYYIMGPHWGQGTQVTVSS
notes: bivalent
Turning to B20, the results for the EC50 in experiment [6], in experiment [7] and in [8] were 0.2 nM, 0.16 nM and 0.17 nM, respectively.

The values are drawn from patent US20240270826A1 (NATIONAL RESEARCH COUNCIL OF CANADA, published 2024).
